The record followed here is patent publication US20210155701A1 (Chugai, published 2021).

In assay [1] the target is T1, human CD3ed-Fc (biotin-labeled human CD3 epsilon and human CD3 delta linked to a human antibody constant … (human, biotin-labeled (BirA co-expression); site not stated).
T1 construct: also called CD3 epsilon delta heterodimer fused with the antibody constant region
T1 chain 1: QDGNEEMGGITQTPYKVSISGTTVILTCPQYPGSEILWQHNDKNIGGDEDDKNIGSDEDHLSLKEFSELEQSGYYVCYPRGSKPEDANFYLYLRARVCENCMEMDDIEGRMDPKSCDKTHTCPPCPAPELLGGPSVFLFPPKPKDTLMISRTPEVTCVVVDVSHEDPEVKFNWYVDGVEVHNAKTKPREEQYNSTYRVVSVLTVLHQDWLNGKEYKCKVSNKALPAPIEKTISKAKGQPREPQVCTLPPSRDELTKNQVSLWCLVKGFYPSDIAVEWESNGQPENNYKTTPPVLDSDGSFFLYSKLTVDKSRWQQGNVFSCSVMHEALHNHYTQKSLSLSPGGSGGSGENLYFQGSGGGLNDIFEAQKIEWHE
T1 chain 2: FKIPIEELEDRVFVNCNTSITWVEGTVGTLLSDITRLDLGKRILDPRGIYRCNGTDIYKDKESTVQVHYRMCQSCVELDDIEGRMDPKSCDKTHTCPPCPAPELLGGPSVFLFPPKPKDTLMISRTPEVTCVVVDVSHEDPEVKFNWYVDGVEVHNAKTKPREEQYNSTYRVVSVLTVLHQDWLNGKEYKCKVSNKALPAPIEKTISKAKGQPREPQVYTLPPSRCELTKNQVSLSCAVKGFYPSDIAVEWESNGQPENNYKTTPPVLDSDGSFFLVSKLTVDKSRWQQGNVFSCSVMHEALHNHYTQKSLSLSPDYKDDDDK
Description: phage display: phage ELISA or panning on biotin-labeled human CD3ed-Fc (binding clone for human CD3).

For assay [2], the target named is T2, soluble human IL-6R (human, UniProt P08887 20-357).
T2 construct: also called hsIL-6R; recombinant human IL6R
T2 sequence: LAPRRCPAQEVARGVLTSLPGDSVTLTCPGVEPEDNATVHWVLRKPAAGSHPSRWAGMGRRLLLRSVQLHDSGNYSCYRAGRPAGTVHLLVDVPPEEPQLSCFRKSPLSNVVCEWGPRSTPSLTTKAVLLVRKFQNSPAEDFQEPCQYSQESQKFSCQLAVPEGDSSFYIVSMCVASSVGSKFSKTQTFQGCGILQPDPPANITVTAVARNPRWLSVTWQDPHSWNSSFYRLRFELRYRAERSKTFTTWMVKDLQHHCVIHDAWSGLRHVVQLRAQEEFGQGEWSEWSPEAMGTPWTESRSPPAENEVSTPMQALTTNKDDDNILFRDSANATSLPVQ
Description: BLI (Octet) as in Example 3.

Assay [3] deals with T1, human CD3ed-Fc (biotin-labeled human …). In words: BLI (Octet RED) as in Example 3.
Assay [4] addresses T2, soluble human IL-6R. Description: BLI (Octet) as in Example 3, 30 degrees C or 25 degrees C.
Assay [5] concerns the target T2, soluble human IL-6R. Description: BLI (Octet HTX), molecule on Protein A biosensor, hsIL-6R as analyte, 30 degrees C. As for the experimental part: The hsIL-6R binding evaluation of each molecule was conducted using Octet HTX (Pall ForteBio Corp.). Specifically, each molecule was bound to Biosensor/Protein A (ProA) (Pall ForteBio Corp., 18-5013), and hsIL-6R was allowed to act thereon, followed by binding evaluation at 30 degrees C.

B1: bC3edL1R1N161H01 (VHH)
VHH: QVQLVESGGGLVQPGGSLRLSCAASGFPFDNYVMSWVRQAPGKGLEWISAISWNGGSTYYAESMKGRFTISRDNAKSTLYLQMNSLKSEDTAVYYCAKEPRVYYSGSPDYWGQGTQVTVSG
On to B1, for which the binding result in assay [1] is given as “binds”.

B2: bC3edL1R1N164H01 (VHH)
VHH: QVQLVESGGGLVQPGGSLRLSCAASGFTFDVYGMSWVRHSPGKGLEWVSTINWNGGSTYYAESMKGRFTISRDNAKNTVYLQMNSLKPEDTAVYYCAKFAPWDGDMEWGQGTQVTVSG
As for B2, in assay [1], the binding result is on record as “binds”.

B3: 20A11-G1m/VK1-39-k0MT (antibody, human IgG1, kappa, V domains shown)
VH: EVQLVESGGGLVQPGGSLRLSCAASGSVFKINVMAWYRQAPGKGRELVAGIISGGSTSYADSVKGRFTISRDNAKNTLYLQMNSLRPEDTAVYYCAFITTESDYDLGRRYWGQGTLVTVSS
VL: DIQMTQSPSSLSASVGDRVTITCRASQSISSYLNWYQQKPGKAPKLLIYAASSLQSGVPSRFSGSGSGTDFTLTISSLQPEDFATYYCLQFDSYPLTFGGGTKVEIKR
As for B3, the binding result with soluble human IL-6R [2] was “binds”.

B4: 20A11-G1m/VL1-40-lamL (antibody, human IgG1, lambda, V domains shown)
VH: EVQLVESGGGLVQPGGSLRLSCAASGSVFKINVMAWYRQAPGKGRELVAGIISGGSTSYADSVKGRFTISRDNAKNTLYLQMNSLRPEDTAVYYCAFITTESDYDLGRRYWGQGTLVTVSS
VL: QSVLTQPPSVSGAPGQRVTISCTGSSSNIGAGYDVHWYQQLPGTAPKLLIYGNSNRPSGVPDRFSGSKSGTSASLAITGLQAEDEADYYCQSYDNSLNAVVFGGGTKLTVLG
In the case of B4, the binding result with soluble human IL-6R [2] is given as “binds”.

B5: 20A11-G1m/VL1-44-lamL (antibody, human IgG1, lambda, V domains shown)
VH: EVQLVESGGGLVQPGGSLRLSCAASGSVFKINVMAWYRQAPGKGRELVAGIISGGSTSYADSVKGRFTISRDNAKNTLYLQMNSLRPEDTAVYYCAFITTESDYDLGRRYWGQGTLVTVSS
VL: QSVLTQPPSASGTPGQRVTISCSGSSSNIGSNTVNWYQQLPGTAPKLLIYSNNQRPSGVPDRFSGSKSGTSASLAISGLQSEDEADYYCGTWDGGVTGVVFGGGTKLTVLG
Take B5: the binding result with soluble human IL-6R [2] was “binds”.

B6: 20A11-G1m/VK2-28-k0MT (antibody, human IgG1, kappa, V domains shown)
VH: EVQLVESGGGLVQPGGSLRLSCAASGSVFKINVMAWYRQAPGKGRELVAGIISGGSTSYADSVKGRFTISRDNAKNTLYLQMNSLRPEDTAVYYCAFITTESDYDLGRRYWGQGTLVTVSS
VL: not shown
Take B6: the binding result with soluble human IL-6R [2] was “binds”.

B7: 20A11-G1m/VL2-14-lamL (antibody, human IgG1, lambda, V domains shown)
VH: EVQLVESGGGLVQPGGSLRLSCAASGSVFKINVMAWYRQAPGKGRELVAGIISGGSTSYADSVKGRFTISRDNAKNTLYLQMNSLRPEDTAVYYCAFITTESDYDLGRRYWGQGTLVTVSS
VL: QSALTQPASVSGSPGQSITISCTGTSSDVGGYNYVSWYQQHPGKAPKLMIYEVSNRPSGVSNRFSGSKSGNTASLTISGLQAEDEADYYCSSYRSGYTLVVFGGGTKLTVLG
Turning to B7, the binding result with soluble human IL-6R [2] is “binds”.

B8: 20A11-G1m/VL3-21-lamL (antibody, human IgG1, lambda, V domains shown)
VH: EVQLVESGGGLVQPGGSLRLSCAASGSVFKINVMAWYRQAPGKGRELVAGIISGGSTSYADSVKGRFTISRDNAKNTLYLQMNSLRPEDTAVYYCAFITTESDYDLGRRYWGQGTLVTVSS
VL: SYVLTQPPSVSVAPGKTARITCGGNNIGSKSVHWYQQKPGQAPVLVIYYDSDRPSGIPERFSGSNSGNTATLTISRVEAGDEADYYCQAWDSSTDVVFGGGTKLTVLG
Consider B8, for which, in the assay with soluble human IL-6R [2], the binding result is “binds”.

B9: bC3edL1R1N160H01-G1mISHI01/VK1-39-k0MT (before protease treatment) (antibody, human IgG1, kappa, V domains shown)
VH: QVQLVESGGGLVQPGGSLRLSCAASGFTFNHCWMYWVRQAPGKGLEWVSVINTDGGSAYYADSVKGRFTISRDNAKNTLYLQMNSLKSEDTAVYYCARDWAPLVDYYYGMDYWGKGTLVTVSG
VL: DIQMTQSPSSLSASVGDRVTITCRASQSISSYLNWYQQKPGKAPKLLIYAASSLQSGVPSRFSGSGSGTDFTLTISSLQPEDFATYYCLQFDSYPLTFGGGTKVEIKR
Regarding B9, the binding result in assay [3] is “no binding”.

B10: 20A11hu-G1m/VL2-14-lamL (antibody, human IgG1, lambda, V domains shown)
VH: EVQLVESGGGLVQPGGSLRLSCAASGSVFKINVMAWVRQAPGKGLEWVAGIISGGSTSYADSVKGRFTISRDNAKNTLYLQMNSLRPEDTAVYYCAFITTESDYDLGRRYWGQGTLVTVSS
VL: QSALTQPASVSGSPGQSITISCTGTSSDVGGYNYVSWYQQHPGKAPKLMIYEVSNRPSGVSNRFSGSKSGNTASLTISGLQAEDEADYYCSSYRSGYTLVVFGGGTKLTVLG
Consider B10, for which the binding result with soluble human IL-6R [4] is given as “no binding”.

B11: 20A11hu-G1m/VL1-44-lamL (antibody, human IgG1, lambda, V domains shown)
VH: EVQLVESGGGLVQPGGSLRLSCAASGSVFKINVMAWVRQAPGKGLEWVAGIISGGSTSYADSVKGRFTISRDNAKNTLYLQMNSLRPEDTAVYYCAFITTESDYDLGRRYWGQGTLVTVSS
VL: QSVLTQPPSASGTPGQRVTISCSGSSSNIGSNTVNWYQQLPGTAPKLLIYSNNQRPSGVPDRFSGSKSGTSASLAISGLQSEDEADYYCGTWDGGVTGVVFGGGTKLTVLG
For the molecule B11, in the assay with soluble human IL-6R [4], the binding result is listed as “no binding”.

B12: 20A11hu-G1m/VK1-39-k0MT (antibody, human IgG1, kappa, V domains shown)
VH: EVQLVESGGGLVQPGGSLRLSCAASGSVFKINVMAWVRQAPGKGLEWVAGIISGGSTSYADSVKGRFTISRDNAKNTLYLQMNSLRPEDTAVYYCAFITTESDYDLGRRYWGQGTLVTVSS
VL: DIQMTQSPSSLSASVGDRVTITCRASQSISSYLNWYQQKPGKAPKLLIYAASSLQSGVPSRFSGSGSGTDFTLTISSLQPEDFATYYCLQFDSYPLTFGGGTKVEIKR
Take B12: in the assay with soluble human IL-6R [4], the binding result is on record as “no binding”.

B13: 20A11hu-G1m/VL1-40-lamL (antibody, human IgG1, lambda, V domains shown)
VH: EVQLVESGGGLVQPGGSLRLSCAASGSVFKINVMAWVRQAPGKGLEWVAGIISGGSTSYADSVKGRFTISRDNAKNTLYLQMNSLRPEDTAVYYCAFITTESDYDLGRRYWGQGTLVTVSS
VL: QSVLTQPPSVSGAPGQRVTISCTGSSSNIGAGYDVHWYQQLPGTAPKLLIYGNSNRPSGVPDRFSGSKSGTSASLAITGLQAEDEADYYCQSYDNSLNAVVFGGGTKLTVLG
Regarding B13, the binding result with soluble human IL-6R [4] was “no binding”.

B14: 20A11hu-G1m/VK2-28-k0MT (antibody, human IgG1, kappa, V domains shown)
VH: EVQLVESGGGLVQPGGSLRLSCAASGSVFKINVMAWVRQAPGKGLEWVAGIISGGSTSYADSVKGRFTISRDNAKNTLYLQMNSLRPEDTAVYYCAFITTESDYDLGRRYWGQGTLVTVSS
VL: not shown
For the molecule B14, the binding result with soluble human IL-6R [4] is on record as “no binding”.

B15: bC3edL1R1N160H01 (VHH)
VHH: QVQLVESGGGLVQPGGSLRLSCAASGFTFNHCWMYWVRQAPGKGLEWVSVINTDGGSAYYADSVKGRFTISRDNAKNTLYLQMNSLKSEDTAVYYCARDWAPLVDYYYGMDYWGKGTLVTVSG
For B15, the binding result in assay [1] was “binds”.

B16: IL6R90-G1m/VK2-28-k0MT (antibody, human IgG1, kappa, V domains shown)
VH: EVQLVESGGGLVQPGGSLRLSCAASGFTFDDYGMSWVRQAPGKALEWVSAISWNGNNTYYTESMKGRFTISRDNAKNTLYLQMNSLRPEDTAVYYCVKGSTAIVGVPPTYPDEYDYWGQGTLVTVSS
VL: not shown
notes: IgG antibody-like molecule
Consider B16, for which, in the assay with soluble human IL-6R [5], the binding result was “no binding”.

B17: IL6R90-G1m/VL2-14-lamL (antibody, human IgG1, lambda, V domains shown)
VH: EVQLVESGGGLVQPGGSLRLSCAASGFTFDDYGMSWVRQAPGKALEWVSAISWNGNNTYYTESMKGRFTISRDNAKNTLYLQMNSLRPEDTAVYYCVKGSTAIVGVPPTYPDEYDYWGQGTLVTVSS
VL: QSALTQPASVSGSPGQSITISCTGTSSDVGGYNYVSWYQQHPGKAPKLMIYEVSNRPSGVSNRFSGSKSGNTASLTISGLQAEDEADYYCSSYRSGYTLVVFGGGTKLTVLG
notes: IgG antibody-like molecule
Take B17: the binding result with soluble human IL-6R [5] is listed as “no binding”.

B18: IL6R90-G1m/VL1-40-lamL (antibody, human IgG1, lambda, V domains shown)
VH: EVQLVESGGGLVQPGGSLRLSCAASGFTFDDYGMSWVRQAPGKALEWVSAISWNGNNTYYTESMKGRFTISRDNAKNTLYLQMNSLRPEDTAVYYCVKGSTAIVGVPPTYPDEYDYWGQGTLVTVSS
VL: QSVLTQPPSVSGAPGQRVTISCTGSSSNIGAGYDVHWYQQLPGTAPKLLIYGNSNRPSGVPDRFSGSKSGTSASLAITGLQAEDEADYYCQSYDNSLNAVVFGGGTKLTVLG
notes: IgG antibody-like molecule
For the molecule B18, the binding result with soluble human IL-6R [5] was “no binding”.

B19: IL6R90-G1m/VL1-44-lamL (antibody, human IgG1, lambda, V domains shown)
VH: EVQLVESGGGLVQPGGSLRLSCAASGFTFDDYGMSWVRQAPGKALEWVSAISWNGNNTYYTESMKGRFTISRDNAKNTLYLQMNSLRPEDTAVYYCVKGSTAIVGVPPTYPDEYDYWGQGTLVTVSS
VL: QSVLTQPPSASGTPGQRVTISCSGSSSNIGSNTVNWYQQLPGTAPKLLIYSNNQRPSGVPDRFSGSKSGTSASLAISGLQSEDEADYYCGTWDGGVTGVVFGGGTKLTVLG
notes: IgG antibody-like molecule
In the case of B19, the binding result with soluble human IL-6R [5] was “no binding”.
